How the values were obtained:
human MYCT1 (hMYCT1) [1] = molecular target: T1, human MYCT1 (hMYCT1) (human, UniProt Q8N699 1-235, limits assumed); assay: SPR (Biacore 8K), antibody captured via anti-human Fc IgG, MYCT1 as analyte, steady-state affinity model
T1 construct: also called MYC Target 1
T1 sequence: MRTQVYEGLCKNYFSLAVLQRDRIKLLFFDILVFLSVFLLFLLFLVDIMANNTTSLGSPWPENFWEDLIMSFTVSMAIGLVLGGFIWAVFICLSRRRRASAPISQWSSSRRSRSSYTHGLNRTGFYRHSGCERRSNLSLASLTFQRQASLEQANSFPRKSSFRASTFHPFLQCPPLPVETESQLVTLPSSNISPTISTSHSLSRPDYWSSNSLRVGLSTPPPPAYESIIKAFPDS

human MYCT1 (hMYCT1) [2] = molecular target: T1, human MYCT1 (hMYCT1); assay: as above; remark: listed apart in the source
human MYCT1 (hMYCT1) [3] = molecular target: T1, human MYCT1 (hMYCT1); assay: SPR koff ranking, single curve, antibody captured via anti-human Fc IgG, 10 nM MYCT1 as analyte, 1:1 binding model
human MYCT1 (hMYCT1) [4] = molecular target: T1, human MYCT1 (hMYCT1); assay: SPR full kinetics, multicycle, antibody captured via anti-human Fc IgG, MYCT1 0.625-10 nM as analyte, 1:1 binding model

B1: 2B4-p1-uIgG1K (antibody, V domains shown)
VH: EVQLQQSGPELVKPGASVKMSCKASGYTFTDYNMHWVRQSHGKGLEWIGYINPNQGGSSYNRKFKGKATLTVNKSSRSASMELRSLTSEDSAVYYCATRFDVWGTGTTVTVSS
VL: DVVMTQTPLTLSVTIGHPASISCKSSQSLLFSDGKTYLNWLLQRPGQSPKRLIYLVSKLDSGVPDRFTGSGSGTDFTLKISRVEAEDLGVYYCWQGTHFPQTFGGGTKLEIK
A Kd (human MYCT1 (hMYCT1) [1]) of 264 nM was found for B1 in this work.

B2: 2B4-p2-uIgG1K (antibody, V domains shown)
VH: EVQLQQSGPELVKPGASVKMSCKASGYTFTDYNMHWVRQSHGKGLEWIGYINPNSGGSSYNRKFKGKATLTVNKSSRSASMELRSLTSEDSAVYYCATRFDVWGTGTTVTVSS
VL: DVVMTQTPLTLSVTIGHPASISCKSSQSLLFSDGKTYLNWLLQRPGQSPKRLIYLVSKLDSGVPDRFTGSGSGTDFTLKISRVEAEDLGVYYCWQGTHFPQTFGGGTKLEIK
A Kd (human MYCT1 (hMYCT1) [1]) of 224 nM was found for B2 in this work.

B3: 2B4-z14-uIgG1K (antibody, V domains shown)
VH: EVQLQQSGPELVKPGASVKMSCKASGYTFTDYNMHWVRQSHGKGLEWIGYINPNNGGSSYNRKFKGKATLTVNKSSRSASMELRSLTSEDSAVYYCATRFDVWGTGTTVTVSS
VL: DVVMTQSPLSLPVTLGQPASISCKSSQSLLFSDGKTYLNWLQQRPGQSPRRLIYLVSKLDSGVPDRFSGSGSGTDFTLKISRVEAEDVGVYYCWQGTHFPQTFGGGTKVEIK
A Kd (human MYCT1 (hMYCT1) [2]) of 203 nM was found for B3 in this work.

B4: 2B4-z2-uIgG1K (antibody, V domains shown)
VH: QVQLVQSGAEVKKPGASVKVSCKASGYTFTDYNMHWVRQAPGQGLEWMGYINPNNGGSSYNRKFKGRVTMTTDTSTSTAYMELRSLRSDDTAVYYCATRFDVWGQGTTVTVSS
VL: DVVMTQSPLSLPVTLGQPASISCKSSQSLLFSDGKTYLNWLQQRPGQSPRRLIYLVSKLDSGVPDRFSGSGSGTDFTLKISRVEAEDVGVYYCWQGTHFPQTFGGGTKVEIK
A Kd (human MYCT1 (hMYCT1) [2]) of 368 nM was found for B4 in this work.

B5: 2B4-z3-uIgG1K (antibody, V domains shown)
VH: QVQLVQSGAEVKKPGASVKVSCKASGYTFTDYNMHWVRQAPGQGLEWMGYINPNNGGSSYNRKFKGRVTLTTDTSTSTAYMELRSLRSDDTAVYYCATRFDVWGQGTTVTVSS
VL: DVVMTQSPLSLPVTLGQPASISCKSSQSLLFSDGKTYLNWLQQRPGQSPRRLIYLVSKLDSGVPDRFSGSGSGTDFTLKISRVEAEDVGVYYCWQGTHFPQTFGGGTKVEIK
A Kd (human MYCT1 (hMYCT1) [2]) of 332 nM was found for B5 in this work.

B6: 2B4-z4-uIgG1K (antibody, V domains shown)
VH: QVQLVQSGAEVKKPGASVKVSCKASGYTFTDYNMHWVRQAPGQGLEWMGYINPNNGGSSYNRKFKGRVTMTVDTSTSTAYMELRSLRSDDTAVYYCATRFDVWGQGTTVTVSS
VL: DVVMTQSPLSLPVTLGQPASISCKSSQSLLFSDGKTYLNWLQQRPGQSPRRLIYLVSKLDSGVPDRFSGSGSGTDFTLKISRVEAEDVGVYYCWQGTHFPQTFGGGTKVEIK
A Kd (human MYCT1 (hMYCT1) [2]) of 354 nM was found for B6 in this work.

B7: 2B4-z5-uIgG1K (antibody, V domains shown)
VH: QVQLVQSGAEVKKPGASVKVSCKASGYTFTDYNMHWVRQAPGQGLEWMGYINPNNGGSSYNRKFKGRVTMTTDKSTSTAYMELRSLRSDDTAVYYCATRFDVWGQGTTVTVSS
VL: DVVMTQSPLSLPVTLGQPASISCKSSQSLLFSDGKTYLNWLQQRPGQSPRRLIYLVSKLDSGVPDRFSGSGSGTDFTLKISRVEAEDVGVYYCWQGTHFPQTFGGGTKVEIK
A Kd (human MYCT1 (hMYCT1) [2]) of 351 nM was found for B7 in this work.

B8: 2B4-z6-uIgG1K (antibody, V domains shown)
VH: QVQLVQSGAEVKKPGASVKVSCKASGYTFTDYNMHWVRQAPGQGLEWMGYINPNNGGSSYNRKFKGRVTMTTDTSTRTAYMELRSLRSDDTAVYYCATRFDVWGQGTTVTVSS
VL: DVVMTQSPLSLPVTLGQPASISCKSSQSLLFSDGKTYLNWLQQRPGQSPRRLIYLVSKLDSGVPDRFSGSGSGTDFTLKISRVEAEDVGVYYCWQGTHFPQTFGGGTKVEIK
A Kd (human MYCT1 (hMYCT1) [2]) of 447 nM was found for B8 in this work.

B9: 2B4-z7-uIgG1K (antibody, V domains shown)
VH: QVQLVQSGAEVKKPGASVKMSCKASGYTFTDYNMHWVRQAPGQGLEWMGYINPNNGGSSYNRKFKGRVTMTTDTSTSTAYMELRSLRSDDTAVYYCATRFDVWGQGTTVTVSS
VL: DVVMTQSPLSLPVTLGQPASISCKSSQSLLFSDGKTYLNWLQQRPGQSPRRLIYLVSKLDSGVPDRFSGSGSGTDFTLKISRVEAEDVGVYYCWQGTHFPQTFGGGTKVEIK
A Kd (human MYCT1 (hMYCT1) [2]) of 382 nM was found for B9 in this work.

B10: 2B4-z8-uIgG1K (antibody, V domains shown)
VH: QVQLVQSGAEVKKPGASVKVSCKASGYTFTDYNMHWVRQAPGQGLEWIGYINPNNGGSSYNRKFKGRVTMTTDTSTSTAYMELRSLRSDDTAVYYCATRFDVWGQGTTVTVSS
VL: DVVMTQSPLSLPVTLGQPASISCKSSQSLLFSDGKTYLNWLQQRPGQSPRRLIYLVSKLDSGVPDRFSGSGSGTDFTLKISRVEAEDVGVYYCWQGTHFPQTFGGGTKVEIK
A Kd (human MYCT1 (hMYCT1) [2]) of 321 nM was found for B10 in this work.

B11: 2B4-z10-uIgG1K (antibody, V domains shown)
VH: QVQLVQSGAEVKKPGASVKVSCKASGYTFTDYNMHWVRQAPGQGLEWMGYINPNNGGSSYNRKFKGRVTMTVDKSTRTAYMELRSLRSDDTAVYYCATRFDVWGQGTTVTVSS
VL: DVVMTQSPLSLPVTLGQPASISCKSSQSLLFSDGKTYLNWLQQRPGQSPRRLIYLVSKLDSGVPDRFSGSGSGTDFTLKISRVEAEDVGVYYCWQGTHFPQTFGGGTKVEIK
A Kd (human MYCT1 (hMYCT1) [2]) of 456 nM was found for B11 in this work.

B12: 2B4-z11-uIgG1K (antibody, V domains shown)
VH: QVQLVQSGAEVKKPGASVKVSCKASGYTFTDYNMHWVRQAPGQGLEWMGYINPNNGGSSYNRKFKGRVTLTVDKSTRTAYMELRSLRSDDTAVYYCATRFDVWGQGTTVTVSS
VL: DVVMTQSPLSLPVTLGQPASISCKSSQSLLFSDGKTYLNWLQQRPGQSPRRLIYLVSKLDSGVPDRFSGSGSGTDFTLKISRVEAEDVGVYYCWQGTHFPQTFGGGTKVEIK
A Kd (human MYCT1 (hMYCT1) [2]) of 449 nM was found for B12 in this work.

B13: 2B4-z12-uIgG1K (antibody, V domains shown)
VH: QVQLVQSGAEVKKPGASVKMSCKASGYTFTDYNMHWVRQAPGQGLEWMGYINPNNGGSSYNRKFKGRVTLTVDKSTRTAYMELRSLRSDDTAVYYCATRFDVWGQGTTVTVSS
VL: DVVMTQSPLSLPVTLGQPASISCKSSQSLLFSDGKTYLNWLQQRPGQSPRRLIYLVSKLDSGVPDRFSGSGSGTDFTLKISRVEAEDVGVYYCWQGTHFPQTFGGGTKVEIK
A Kd (human MYCT1 (hMYCT1) [2]) of 428 nM was found for B13 in this work.

B14: 2B4-z13-uIgG1K (antibody, V domains shown)
VH: QVQLVQSGAEVKKPGASVKMSCKASGYTFTDYNMHWVRQAPGQGLEWIGYINPNNGGSSYNRKFKGRVTLTVDKSTRTAYMELRSLRSDDTAVYYCATRFDVWGQGTTVTVSS
VL: DVVMTQSPLSLPVTLGQPASISCKSSQSLLFSDGKTYLNWLQQRPGQSPRRLIYLVSKLDSGVPDRFSGSGSGTDFTLKISRVEAEDVGVYYCWQGTHFPQTFGGGTKVEIK
A Kd (human MYCT1 (hMYCT1) [2]) of 443 nM was found for B14 in this work.

B15: 2B4-z15-uIgG1K (antibody, V domains shown)
VH: QVQLVQSGAEVKKPGASVKMSCKASGYTFTDYNMHWVRQAPGQGLEWIGYINPNNGGSSYNRKFKGRVTLTVDKSTRTAYMELRSLRSDDTAVYYCATRFDVWGQGTTVTVSS
VL: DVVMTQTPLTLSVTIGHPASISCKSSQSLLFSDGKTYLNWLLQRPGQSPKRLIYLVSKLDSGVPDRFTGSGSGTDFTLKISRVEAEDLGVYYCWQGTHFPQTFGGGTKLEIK
A Kd (human MYCT1 (hMYCT1) [2]) of 617 nM was found for B15 in this work.

B16: 11B6-z11-uIgG1K (antibody, V domains shown)
VH: EVQLVESGGGLVKPGGSLRLSCAASGFTFSDFGIHWVRQAPGKGLEWVGYISSGSRTIHYADTVKGRFTISRDNAKNSLYLQMNSLRAEDTAIYYCARRDWDPEWLAYWGQGTLVTVSS
VL: DVVMTQSPLSLPVTPGEPASISCRSSLSLVHSNGHTYLHWYLQKPGQSPQLLIYKVSNRFSGVPDRFSGSGSGTDFTLKISRVEAEDVGVYFCSQSTHVPFTFGQGTKLEIK
A koff (human MYCT1 (hMYCT1) [3]) of 0.0102 s⁻¹ was found for B16 in this work.

B17: 11B6-z12-uIgG1K (antibody, V domains shown)
VH: EVQLVESGGGLVKPGGSLRLSCAASGFTFSDFGIHWVRQAPGKGLEWVGYISSGSRTIHYADTVKGRFTISRDNAKNSLYLQMNSLRAEDTAIYYCARRDWDPEWLAYWGQGTLVTVSS
VL: DVVMTQSPLSLPVTPGEPASISCRSSLSLVHSNGHTYLHWYLQKPGQSPKLLIYKVSNRFSGVPDRFSGSGSGTDFTLKIRRVEAEDVGVYFCSQSTHVPFTFGQGTKLEIK
A koff (human MYCT1 (hMYCT1) [3]) of 0.00838 s⁻¹ was found for B17 in this work.

B18: 11B6-z13-uIgG1K (antibody, V domains shown)
VH: EVQLVESGGGLVKPGGSLRLSCAASGFTFSDFGIHWVRQAPGKGLEWVGYISSGSRTIHYADTVKGRFTISRDNAKNTLFLQMNSLRAEDTAIYYCARRDWDPEWLAYWGQGTLVTVSS
VL: DVVMTQSPLSLPVTPGEPASISCRSSLSLVHSNGHTYLHWYLQKPGQSPKLLIYKVSNRFSGVPDRFSGSGSGTDFTLKIRRVEAEDVGVYFCSQSTHVPFTFGQGTKLEIK
A koff (human MYCT1 (hMYCT1) [3]) of 0.00838 s⁻¹ was found for B18 in this work.

B19: 11B6-z10-p3-uIgG1K (antibody, V domains shown)
VH: EVQLVESGGGLVKPGGSLRLSCAASGFTFSDFGIHWVRQAPGKGLEWVGYISSGSRTIHYADTVKGRFTISRDNAKNSLYLQMNSLRAEDTAVYYCARRDWDPEWLAYWGQGTLVTVSS
VL: DVVMTQSPLSLPVTPGEPASISCRSSLSLVHSNAHTYLHWYLQKPGQSPQLLIYKVSNRFSGVPDRFSGSGSGTDFTLKISRVEAEDVGVYFCSQSTHVPFTFGQGTKLEIK
A Kd (human MYCT1 (hMYCT1) [4]) of 3.34 nM, a koff (human MYCT1 (hMYCT1) [4]) of 0.0122 s⁻¹ and a kon (human MYCT1 (hMYCT1) [4]) of 3.65e+06 M⁻¹ s⁻¹ were found for B19 in this work.

B20: 11B6-z12-p3-uIgG1K (antibody, V domains shown)
VH: EVQLVESGGGLVKPGGSLRLSCAASGFTFSDFGIHWVRQAPGKGLEWVGYISSGSRTIHYADTVKGRFTISRDNAKNSLYLQMNSLRAEDTAIYYCARRDWDPEWLAYWGQGTLVTVSS
VL: DVVMTQSPLSLPVTPGEPASISCRSSLSLVHSNAHTYLHWYLQKPGQSPKLLIYKVSNRFSGVPDRFSGSGSGTDFTLKIRRVEAEDVGVYFCSQSTHVPFTFGQGTKLEIK
A Kd (human MYCT1 (hMYCT1) [4]) of 2.35 nM, a koff (human MYCT1 (hMYCT1) [4]) of 0.00786 s⁻¹ and a kon (human MYCT1 (hMYCT1) [4]) of 3.35e+06 M⁻¹ s⁻¹ were found for B20 in this work.

B21: 11B6-z16-p3-uIgG1K (antibody, V domains shown)
VH: EVQLVESGGGLVKPGGSLRLSCAASGFTFSDFGIHWVRQAPGKGLEWVGYISSGSRTIHYADTVKGRFTISRDNAKNSLYLQMNSLRAEDTAVYYCARRDWDPEWLAYWGQGTLVTVSS
VL: DIVMTQSPLSLPVTPGEPASISCRSSLSLVHSNAHTYLHWYLQKPGQSPKLLIYKVSNRFSGVPDRFSGSGSGTDFTLKISRVEAEDVGVYFCSQSTHVPFTFGQGTKLEIK
notes: also called hzATN001; ATN001
A Kd (human MYCT1 (hMYCT1) [4]) of 2.53 nM, a koff (human MYCT1 (hMYCT1) [4]) of 0.00841 s⁻¹ and a kon (human MYCT1 (hMYCT1) [4]) of 3.32e+06 M⁻¹ s⁻¹ were found for B21 in this work.

Source: patent EP4737482A1 (Atheon Bio, Inc., dated 2026)
